Assay results from patent US11655301B2, “Carrier-binding agent compositions and methods of making and using the same” (Mayo Foundation for Medical Education and Research, priority 2016, dated 2023).

How the values were obtained:
ABX [1] = target: T1, ABX (Homo sapiens, UniProt P02768); assay: Bio-Layer Interferometry (BLItz) binding of antibody to ABX; conditions: for binding affinity to ABX (in words): BLItz; for dependence of binding affinity to ABX on pH / temperature: pH 3, 5, 7, 9, BEV also RT, 37° C., 58° C.
T1 construct: purchased Celgene Corporation, Summit, N.J
Description: The association and dissociation constants were calculated using the BLItz software.

CD20 = target: T2, CD20 (Homo sapiens, UniProt P11836); assay: Blocking of fluorescent anti-human CD20 labeling of Daudi cells (flow cytometry); assay type: cell-based; conditions: Daudi cells pretreated before CD20 labeling
T2 construct: endogenous in cells; host or cells: Daudi human B-cell lymphoma cells
T2 sequence (P11836 1-297): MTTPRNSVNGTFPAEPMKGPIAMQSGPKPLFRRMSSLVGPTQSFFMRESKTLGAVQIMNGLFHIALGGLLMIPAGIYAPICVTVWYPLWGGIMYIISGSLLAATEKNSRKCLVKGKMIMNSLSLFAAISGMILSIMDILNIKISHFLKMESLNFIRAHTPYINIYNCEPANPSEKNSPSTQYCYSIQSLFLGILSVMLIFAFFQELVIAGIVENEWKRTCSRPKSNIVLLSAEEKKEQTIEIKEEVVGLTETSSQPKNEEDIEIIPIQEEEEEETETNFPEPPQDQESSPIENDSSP
Description: CD20 positive Daudi lymphoma cells were labeled with fluorescent tagged anti-human CD20 or isotype matched control in panel F and A, respectively, and analyzed by flow cytometry.

[2] = tested on: Daudi human lymphoma cells; assay: Daudi lymphoma xenotransplant in athymic nude mice; assay type: in vivo; conditions: ABX 30 mg/kg, rituximab 12 mg/kg
Description: Tumor response was determined at day 7 post-treatment by the percent change in tumor size from the first day of treatment.
(§1) To test tumor efficacy, 1×10^6 A375 human melanoma cells were implanted into the right flank of athymic nude mice (Harlan Sprague Dawley, Indianapolis, Ind.). […] Tumor size was monitored 3 times/week and tumor volume was calculated with the following equation: (length×width^2)/2. Mice were sacrificed when the tumor size equaled 10% of the mouse body weight or about 2500 mm^3. The day 7 percent change from baseline was calculated as follows: [(tumor size on treatment day-tumor size on day 7)/tumor size on treatment day]×100.
On day 7 post treatment, tumors were measured and the percent change in tumor size from baseline was calculated.

ABX [3] = target: T1, ABX; assay: Binding of cisplatin to ABX (free cisplatin in supernatant by HPLC); assay type: physicochemical; conditions: ABX 5 mg/ml, cisplatin 0.5 mg/ml, room temperature, 30 minutes
[4] = tested on: A375 human melanoma cells; assay: A375 xenograft, BEV pretreatment follow up study; assay type: in vivo, athymic nude mice; conditions: day 7 and day 10 post treatment; BEV 12 mg/kg, ABX 30 mg/kg
Description: Data is represented at day 7-post and day 10-post treatment as tumor volume in mm^3. FIGS. 11A-E track tumor size over 10 days. […] See also FIG. 11 F and FIG. 11 G.

[5] = tested on: A375 human melanoma cells; assay: A375 human melanoma xenograft in athymic nude mice; assay type: in vivo; conditions: BEV 12 mg/kg, ABX 30 mg/kg, tumors about 700 mm^3 at treatment
Description: In vivo experiments were performed at least 2 times. The number of mice required for those experiments was determined by power analysis. Mouse tumors were measured 2-3 times/week and mice were sacrificed when the tumor was 10% by weight. […] The end point of the mouse studies was median survival. Kaplan-Meier curves were generated and Mantle-Cox test was performed to determine significance of median survival between treatment groups. The in vitro results presented are representative of at least 5 repeated experiments. Statistical analyses of in vitro and in vivo percent change from baseline experiments were done using the Student's t-test.
as §1
The ABC complex was tested in the A375 melanoma xenotransplant model relative to each drug alone and AB160.
The effect of AB225 was assayed in animals as set forth above.

Molecule: rituximab
- binding affinity to ABX (in words) (ABX [1]): picomolar range
- dependence of binding affinity to ABX on pH / temperature (ABX [1]): decreased with higher pH
- blocking of CD20 binding of fluorescent anti-CD20 (CD20): specifically blocked
- median survival [2]: 12 days

Molecule: N.N.[Cl][Pt][Cl] [cisplatin]
- cisplatin remaining in the supernatant (ABX [3]): 40%

Molecule: bevacizumab
- binding affinity to ABX (in words) (ABX [1]): picomolar range
- dependence of binding affinity to ABX on pH / temperature (ABX [1]): both pH- and temperature-dependent
- average tumor volume [4]: not therapeutic
- median survival [5]: 14 days
